In article PMC9499535, “Distinct architectural requirements for the parS centromeric sequence of the pSM19035 plasmid partition machinery”:

Legend:
[1] = molecular target: T1, ParB_pSM19035 (ParBpSM, Omega) (plasmid pSM19035, UniProt Q57468 1-71); experiment: EMSA; 2 mM Mg2+; EMSA: 50 mM Tris-HCl pH 7.4, 100 mM KCl, 2 mM MgCl2, 1 mM DTT, room temperature 15 min, 0.05 nM 32P-DNA, 4-12% PAGE. TIRF binding to the salmon sperm DNA carpet (undefined sequence pool) and ATPase assays not listed; details: protein: recombinant; tags: none stated; chain copies: 2; label: 32P; blunt
T1 sequence: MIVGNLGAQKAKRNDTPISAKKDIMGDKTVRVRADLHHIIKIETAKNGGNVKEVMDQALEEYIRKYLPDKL

[2] = molecular target: ParApSM-His6 (non-fluorescent, wild-type) (Streptococcus pyogenes (plasmid pSM19035)) (UniProt Q57280)
[3] = molecular target: ParApSM-His6 (non-fluorescent, wild-type) (Streptococcus pyogenes (plasmid pSM19035)) (UniProt Q57280); remark: listed apart in the source
[4] = molecular target: ParApSM-His6 (non-fluorescent, wild-type) (Streptococcus pyogenes (plasmid pSM19035)) (UniProt Q57280); remark: listed apart in the source
[5] = molecular target: ParApSM-His6 (non-fluorescent, wild-type) (Streptococcus pyogenes (plasmid pSM19035)) (UniProt Q57280); remark: listed apart in the source
[6] = molecular target: ParApSM^D60E-GFP-His6 (Streptococcus pyogenes (plasmid pSM19035)) (UniProt Q57280); experiment: TIRF microscopy on an nsDNA-carpeted flow cell; ParApSM^D60E-GFP (1 μM) bound first to the nsDNA-carpet, then washed with 250 nM ParBpSM-Alexa647 plus 36 nM 7R-parSpSM duplex; room temperature; 1 mM ATP; apparent constants
[7] = molecular target: ParApSM-GFP-His6 (Streptococcus pyogenes (plasmid pSM19035)) (UniProt Q57280); experiment: TIRF microscopy on an nsDNA-carpeted flow cell; ParApSM-GFP (1 μM) and ParBpSM-Alexa647 (1 μM) preincubated with 1 mM ATP and 3R-parSpSM (0.5 μM consensus repeats), infused over the nsDNA-carpet for 15 min, then washed with ATP buffer without proteins; room temperature; apparent constants
[8] = molecular target: ParApSM-GFP-His6 (Streptococcus pyogenes (plasmid pSM19035)) (UniProt Q57280); experiment: TIRF microscopy on an nsDNA-carpeted flow cell; ParApSM-GFP bound first to the nsDNA-carpet to ~10% of saturation, then washed with 1 μM ParBpSM-Alexa647 plus 7R-parSpSM duplex; room temperature; 1 mM ATP; apparent constants
[9] = molecular target: ParApSM-GFP-His6 (Streptococcus pyogenes (plasmid pSM19035)) (UniProt Q57280); experiment: TIRF microscopy on an nsDNA-carpeted flow cell; ParApSM-GFP (1 μM) and ParBpSM-Alexa647 (1 μM) preincubated with 1 mM ATP and 4R-parSpSM (0.5 μM consensus repeats), infused over the nsDNA-carpet for 15 min, then washed with ATP buffer without proteins; room temperature; apparent constants
[10] = molecular target: ParApSM-GFP-His6 (Streptococcus pyogenes (plasmid pSM19035)) (UniProt Q57280); experiment: TIRF microscopy on an nsDNA-carpeted flow cell; ParApSM-GFP (1 μM) and ParBpSM-Alexa647 (1 μM) preincubated with 1 mM ATP and 7R-parSpSM (0.5 μM consensus repeats), infused over the nsDNA-carpet for 15 min, then washed with ATP buffer without proteins; room temperature; apparent constants
[11] = molecular target: ParApSM-GFP-His6 (Streptococcus pyogenes (plasmid pSM19035)) (UniProt Q57280); experiment: TIRF microscopy on an nsDNA-carpeted flow cell; ParApSM-GFP (1 μM, 1 mM ATP) bound first to the nsDNA-carpet to ~10% of saturation, then washed with 1 μM ParBpSM-Alexa647 without parSpSM; room temperature; 50 mM Tris-HCl pH 7.4, 100 mM KCl, 2 mM MgCl2, 10% glycerol, 1 mM ATP; apparent constants
[12] = molecular target: ParApSM-GFP-His6 (Streptococcus pyogenes (plasmid pSM19035)) (UniProt Q57280); experiment: TIRF microscopy on an nsDNA-carpeted flow cell; ParApSM-GFP bound first to the nsDNA-carpet to ~10% of saturation, then washed with 1 μM ParBpSM-Alexa647 plus 166 nM 3R-parSpSM duplex; room temperature; 1 mM ATP; apparent constants
[13] = molecular target: ParApSM^D60E-GFP-His6 (Streptococcus pyogenes (plasmid pSM19035)) (UniProt Q57280); experiment: TIRF microscopy on an nsDNA-carpeted flow cell; ParApSM^D60E-GFP (1 μM) bound first to the nsDNA-carpet, then washed with 250 nM ParBpSM-Alexa647 plus 4R-parSpSM duplex (125 nM heptad); room temperature; 1 mM ATP
[14] = molecular target: ParApSM^D60E-GFP-His6 (Streptococcus pyogenes (plasmid pSM19035)) (UniProt Q57280); experiment: TIRF microscopy on an nsDNA-carpeted flow cell; ParApSM^D60E-GFP (1 μM) bound first to the nsDNA-carpet, then washed with 250 nM ParBpSM-Alexa647 plus 3R-parSpSM duplex (125 nM heptad); room temperature; 1 mM ATP
[15] = molecular target: ParApSM-GFP-His6 (Streptococcus pyogenes (plasmid pSM19035)) (UniProt Q57280); experiment: TIRF microscopy on an nsDNA-carpeted flow cell; ParApSM-GFP bound first to the nsDNA-carpet to ~10% of saturation, then washed with 1 μM ParBpSM-Alexa647 plus 125 nM 4R-parSpSM duplex; room temperature; 1 mM ATP; apparent constants
[16] = molecular target: ParApSM-GFP-His6 (Streptococcus pyogenes (plasmid pSM19035)) (UniProt Q57280); experiment: TIRF microscopy on an nsDNA-carpeted flow cell; ParApSM-GFP (1 μM) and ParBpSM-Alexa647 (1 μM) preincubated with 1 mM ATP without parSpSM, infused over the nsDNA-carpet for 15 min, then washed with ATP buffer without proteins; room temperature; apparent constants

B1: scrambled 55 bp (nsDNA) (dsDNA)
DNA 1: GGGATCAAACACTTGATAGACAAGTCTTTGACCTAATTGTGAAAATTATGAAGGG
DNA 2: CCCTTCATAATTTTCACAATTAGGTCAAAGACTTGTCTATCAAGTGTTTGATCCC
Kd [1]: ~1000 nM

B2: ParBpSM wild-type (natural protein)
chain: T1 sequence
ParBpSM concentration at which the ParApSM ATPase stimulation saturates, with parSpSM DNA of 1-3 repeats and nsDNA [2]: 2 µM | steady-state ParApSM ATPase turnover with ParBpSM, 3R-1nc-3R-parSpSM duplex and nsDNA, 37°C [3]: 8.3 h^–1 | ParBpSM concentration for half-activation of the ParApSM ATPase at high 7R-parSpSM concentration, with nsDNA [4]: 650 nM | steady-state ParApSM ATPase turnover with 8 μM ParBpSM, scrambled-sequence duplex and nsDNA (pBR322), 37°C [5]: 2.4 h^–1 | steady-state ParApSM ATPase turnover with ParBpSM, 7R-parSpSM duplex and nsDNA (pBR322), 37°C [5]: 20.5 h^–1

B3: ParBpSM-Alexa647 (ParBpSM-GCE, 1% labeled) (natural protein)
chain: T1 sequence
modifications: Alexa647 maleimide on the added cysteine (73C); 1% of the protein labelled
ParBpSM/ParApSM ratio on the nsDNA-carpet at the initial ParBpSM overshoot peak (ParBpSM/ParApSM) [6]: 1.75 | apparent koff of ParBpSM from the ParApSM^D60E-bound nsDNA-carpet after its peak (ParBpSM and 7R-parSpSM in the wash) [6]: 0.036 min^–1 | ParBpSM density on the nsDNA-carpet relative to ParApSM after 15 min of infusion (ParBpSM/ParApSM) [7]: 0.67 | koff of the fast-dissociating majority (~75%) of ParBpSM [7]: 4 min^–1 | ParBpSM density on the nsDNA-carpet relative to carpet-bound ParApSM [8]: 2 fold | ParBpSM/ParApSM molar ratio on the nsDNA-carpet at the start of the dissociation burst (ParBpSM/ParApSM) [8]: 2.8 | apparent koff of ParBpSM from the ParApSM-bound nsDNA-carpet after its peak (ParBpSM and 7R-parSpSM in the wash) [8]: 2.4 min^–1 | ParBpSM/ParApSM ratio on the nsDNA-carpet at the end of 15 min of infusion (ParBpSM/ParApSM) [9]: 0.75 | ParBpSM/ParApSM ratio on the nsDNA-carpet within 1 min of washing (ParBpSM/ParApSM) [9]: 0.5 | koff-fast-B (66%) [9]: 1.9 min^–1 | koff-slow-B [9]: 0.23 min^–1 | ParBpSM/ParApSM ratio accumulated on the nsDNA-carpet (ParBpSM/ParApSM) [10]: 1.2 | koff-fast-B (~70%) [10]: 1.1 min^–1 | koff-slow-B [10]: 0.13 min^–1 | ParBpSM/ParApSM ratio on the nsDNA-carpet after several min of washing (ParBpSM/ParApSM) [11]: 1 | peak density on the ParApSM-bound nsDNA-carpet [11]: 3000 dimers/μm^2 | plateau density on the ParApSM-bound nsDNA-carpet [11]: 2000 dimers/μm^2 | ParBpSM/ParApSM ratio on the nsDNA-carpet (ParBpSM/ParApSM) [12]: 1.3 | apparent koff-fast (~24%) of ParBpSM from the ParApSM-bound nsDNA-carpet (ParBpSM and 3R-parSpSM in the wash) [12]: 1.4 min^–1 | apparent koff-slow of ParBpSM from the ParApSM-bound nsDNA-carpet (ParBpSM and 3R-parSpSM in the wash) [12]: 0.05 min^–1 | ParBpSM/ParApSM ratio on the nsDNA-carpet at the initial ParBpSM overshoot peak (ParBpSM/ParApSM) [13]: 1.3 | ParBpSM/ParApSM ratio on the nsDNA-carpet at the initial ParBpSM overshoot peak (ParBpSM/ParApSM) [14]: 0.6 | ParBpSM/ParApSM molar ratio on the nsDNA-carpet at the start of the dissociation burst (ParBpSM/ParApSM) [15]: 1.7 | apparent koff of ParBpSM from the ParApSM-bound nsDNA-carpet after its peak (ParBpSM and 4R-parSpSM in the wash) [15]: 3.9 min^–1 | ParBpSM density on the nsDNA-carpet relative to ParApSM after 15 min of infusion (ParBpSM/ParApSM) [16]: 0.67 | koff of the fast-dissociating majority (~75%) of ParBpSM [16]: 7 min^–1
